Reference: patent publication US10232056B2, “Method for measuring toxicity of human CSF” (KYOWA HAKKO KIRIN CO., LTD., priority 2014, dated 2019)

How the values were obtained:
ICR mice [1] = test: Effect of anti-Aβ antibody intravenous administration on mouse cognitive function impairment by AD patient CSF (Y-maze test, Example 4); type: in vivo; settings: next day 10 μl AD patient CSF intraventricular, FIG. 4
Method: Next, mice that had intravenous administration of anti-Aβ oligomer antibody were measured for changes in cognitive function after AD patient CSF administration, using a Y-maze test. As the anti-Aβ oligomer antibody, an anti-Aβ oligomer humanized antibody 6E4HV0LV0 was produced according to the method disclosed in WO2011/016567 and known methods, and used in the experiment.
ICR mice were intravenously administered with 3 mg/kg of human IgG4 (Sigma-Aldrich), or 0.3 mg/kg, 1 mg/kg, or 3 mg/kg of 6E4HV0LV0.
On the next day, 10 μl of physiological saline (hereinafter, “Sham”) or the same amount of AD patient CSF (Precision Med) was administered into the cerebral ventricles of the mice under isoflurane anesthesia. Each mouse was then tested by Y-maze test in the same manner as in Example 1 to determine spontaneous alternation (%). The AD patient CSF and the physiological saline were administrated in 5 μl dose into each of the left and right cerebral ventricles.
In the following, mice that had intravenous administration of human IgG4, and intraventricular administration of Sham will be identified by using the notation “human IgG4 i.v.-Sham administered group.” Similar notations are used for mice administered with other samples.

ICR mice [2] = test: Blind measurement of changes in cognitive function of mice after 6E4HV0LV0 pretreatment of CSF (Y-maze test, Example 6); type: in vivo, mouse; settings: for Percentage improvement by 6E4HV0LV0 treatment (%): 10 μl intraventricular; for improvement of spontaneous alternation by 6E4HV0LV0 pretreatment: 10 ng/ml
Method: The cognitive function of mice administered with multiple normal CSFs or AD patient CSFs was measured in blind experiment by performing a Y-maze test in the same manner as in Example 1. The effect of 6E4HV0LV0 pretreatment was also examined at the same time. The experiment was conducted by separating testers who is responsible for dispensing normal CSFs or AD patient CSFs and preparing a 6E4HV0LV0-pretreated AD patient CSF for blind experiment, and who is responsible for administering the samples to mice, and conducting the Y-maze test.
Tester (A) randomly assigned numbers to the dispensed normal CSFs (Precision Med) and AD patient CSFs (Precision Med) for blind experiment. For the AD patient CSFs, samples were also prepared by adding 6E4HV0LV0 to each dispensed CSF to make the final concentration 10 ng/ml, and incubating the mixture at room temperature for about 1 hour. The dispensed and prepared CSF samples were all preserved at −80° C. until the day of the Y-maze testing.
On the day of the Y-maze testing, tester (B) received the samples prepared by tester (A) for blind experiment, and thawed the samples at room temperature. Each sample (10 μl) or physiological saline (10 μl; hereinafter, “Sham”) was administered into the cerebral ventricles of ICR mice under isoflurane anesthesia, and the mice were tested by Y-maze test in the same manner as in Example 1 to determine spontaneous alternation (%). The sample and the physiological saline were administrated in 5 μl dose into each of the left and right cerebral ventricles of mice.
A Y-maze test that used the AD patient CSFs pretreated with 6E4HV0LV0 was conducted at the same time. Percentage improvement of mouse spontaneous alternation by 6E4HV0LV0 pretreatment was calculated for each mouse by using the Formula (3) below. The results are shown under the column heading “Percentage improvement by 6E4HV0LV0 treatment (%)” in Table 1. Percentage improvement (%) of mouse spontaneous alternation by 6E4HV0LV0 pretreatment={(spontaneous alternation of mouse administered with AD patient CSF pretreated with 6E4HV0LV0)−(spontaneous alternation of mouse administered with the same AD patient CSF without 6E4HV0LV0 pretreatment)}/{(spontaneous alternation of Sham administered group)−(spontaneous alternation of mouse administered with the same AD patient CSF without 6E4HV0LV0 pretreatment)}×100 Formula (3)

ICR mice [3] = test: Effect of anti-Aβ antibody pretreatment of AD patient CSF on mouse cognitive function impairment (Y-maze test, Example 5); type: in vivo; settings: 10 μl intraventricular, FIG. 5
Method: For the purpose of evaluating a sample that more accurately reflects the actual clinical sample, the cognitive function of mice administered with an AD patient CSF pretreated with 6E4HV0LV0 was measured by Y-maze test.
6E4HV0LV0 was added to AD patient CSF (Precision Mod) to make the final concentration 1 ng/ml, 10 ng/ml, or 100 ng/ml, and the mixture was incubated at room temperature for about 1 hour.
Artificial cerebrospinal fluid [artificial spinal fluid (Otsuka Pharmaceutical Co., Ltd.) supplemented with 0.02 w/v % human serum albumin (Sigma-Aldrich)](hereinafter, “vehicle”) was added to AD patient CSF or physiological saline (hereinafter, “Sham”), and the mixture was incubated at room temperature. The prepared sample was preserved at −80° C., and used for the experiment after being thawed at room temperature on the day of the Y-maze testing.
The sample (10 μl each) was administered into the cerebral ventricles of ICR mice under isoflurane anesthesia, and each mouse was tested by Y-maze test in the same manner as in Example 1 to determine spontaneous alternation (%). Each sample was administrated in 5 μl dose into each the left and right cerebral ventricles of mice.
In the following, the sample with the AD patient CSF plus the vehicle will be identified by the notation “vehicle-AD CSF”. Similar notations are used for other samples.

B1: 6E4HV0LV0: anti-Aβ oligomer humanized antibody, VH SEQ ID NO: 1, VL SEQ ID NO: 2, produced according to WO2011/016567 (antibody, V domains shown)
VH: QVQLVQSGAEVKKPGASVKVSCKASGYTFTSYWMHWVRQAPGQGLEWMGEINPRNGGTNNNENFKRRVTITADTSTSTAYMELSSLRSEDTAVYYCARDGNYDPFAYWGQGTLVTVSS
VL: DIVMTQSPLSLPVTPGEPASISCRSSQSLVHSNGNTYLHWYLQKPGQSPQLLIYKVSNRFSGVPDRFSGSGSGTDFTLKISRVEAEDVGVYYCSQSTHVPPYTFGQGTKLEIK
spontaneous alternation compared to the human IgG4 i.v.-AD CSF administered group (ICR mice [1]; 3 mg/kg i.v.): significantly higher
spontaneous alternation compared to the human IgG4 i.v.-Sham administered group (ICR mice [1]; 3 mg/kg i.v.): recovering to the same levels
spontaneous alternation, dose response (ICR mice [1]; 6E4HV0LV0 0.3, 1 or 3 mg/kg i.v.): increased with increase in the dose
Percentage improvement by 6E4HV0LV0 treatment (%) (ICR mice [2]; AD patient CSF 8006_Visit 3 pretreated with 10 ng/ml): 80.2%
Percentage improvement by 6E4HV0LV0 treatment (%) (ICR mice [2]; AD patient CSF 8014_Visit 4 pretreated with 10 ng/ml): 59.7%
Percentage improvement by 6E4HV0LV0 treatment (%) (ICR mice [2]; AD patient CSF 8026_Visit 2 pretreated with 10 ng/ml): 14.5%
Percentage improvement by 6E4HV0LV0 treatment (%) (ICR mice [2]; AD patient CSF 8029_Visit 2 pretreated with 10 ng/ml): −11.8%
Percentage improvement by 6E4HV0LV0 treatment (%) (ICR mice [2]; AD patient CSF 8056_Visit 9 pretreated with 10 ng/ml): 86.8%
Percentage improvement by 6E4HV0LV0 treatment (%) (ICR mice [2]; AD patient CSF 8057_Visit 8 pretreated with 10 ng/ml): 59.3%
Percentage improvement by 6E4HV0LV0 treatment (%) (ICR mice [2]; AD patient CSF 8060_Visit 6 pretreated with 10 ng/ml): 46.0%
Percentage improvement by 6E4HV0LV0 treatment (%) (ICR mice [2]; AD patient CSF 8061_Visit 5 pretreated with 10 ng/ml): 65.6%
Percentage improvement by 6E4HV0LV0 treatment (%) (ICR mice [2]; AD patient CSF 8076_Visit 8 pretreated with 10 ng/ml): 68.3%
Percentage improvement by 6E4HV0LV0 treatment (%) (ICR mice [2]; AD patient CSF 8091_Visit 5 pretreated with 10 ng/ml): 56.3%
Percentage improvement by 6E4HV0LV0 treatment (%) (ICR mice [2]; AD patient CSF 8092_Visit 3 pretreated with 10 ng/ml): 87.7%
Percentage improvement by 6E4HV0LV0 treatment (%) (ICR mice [2]; AD patient CSF 8108_Visit 6 pretreated with 10 ng/ml): 82.0%
Percentage improvement by 6E4HV0LV0 treatment (%) (ICR mice [2]; AD patient CSF 8109_Visit 5 pretreated with 10 ng/ml): 90.7%
Percentage improvement by 6E4HV0LV0 treatment (%) (ICR mice [2]; AD patient CSF 8189_Visit 3 pretreated with 10 ng/ml): 83.1%
Percentage improvement by 6E4HV0LV0 treatment (%) (ICR mice [2]; AD patient CSF 8211_Visit 2 pretreated with 10 ng/ml): 90.0%
improvement of spontaneous alternation by 6E4HV0LV0 pretreatment (ICR mice [2]; in 6 out of the 15 AD patient CSF samples): ≥ 40%
improvement of spontaneous alternation by 6E4HV0LV0 pretreatment (ICR mice [2]; in 7 out of the 15 AD patient CSF samples): ≥ 80%
effect of 6E4HV0LV0 pretreatment on cognitive function impairment by normal CSF (ICR mice [2]; the one normal CSF (1 out of 11) that impaired cognitive function): did not improve
spontaneous alternation compared to the vehicle-AD CSF administered group (ICR mice [3]; AD patient CSF pretreated at final concentration of 10 ng/ml or 100 ng/ml): higher
spontaneous alternation compared to the vehicle-Sham administered group (ICR mice [3]; AD patient CSF pretreated at final concentration of 100 ng/ml): recovering to the same levels
